No end group written: not given here.
B1: microbial transglutaminase from Streptomyces mobaraensis (MTG) (protein)
chain: DSDDRVTPPAEPLDRMPDPYRPSYGRAETVVNNYIRKWQQVYSHRDGRKQQMTEEQREWLSYGCVGVTWVNSGQYPTNRLAFASFDEDRFKNELKNGRPRSGETRAEFEGRVAKESFDEEKGFQRAREVASVMNRALENAHDESAYLDNLKKELANGNDALRNEDARSPFYSALRNTPSFKERNGGNHDPSRMKAVIYSKHFWSGQDRSSSADKRKYGDPDAFRPAPGTGLVDMSRDRNIPRSPTSPGEGFVNFDYGWFGAQTEADADKTVWTHGNHYHAPNGSLGAMHVYESKFRNWSEGYSDFDRGAYVITFIPKSWNTAPDKVKQGWP

Tests used:
[1] = biological target: T1, microbial transglutaminase from Streptomyces mobaraensis (MTG) (Streptomyces mobaraensis, UniProt P81453 77-407); experiment: cell-based or functional assay
T1 sequence (looked up): B1 chain

[2] = biological target: T2, Z-GGGDEKPDGGGG (SEQ ID NO: 81)
T2 chain: GGGDEKPDGGGG

[3] = biological target: T3, Z-GGGARSKLGGGG (SEQ ID NO: 80)
T3 chain: GGGARSKLGGGG

[4] = biological target: T4, Z-GGGDYALQGGGG (SEQ ID NO: 86)
T4 chain: GGGDYALQGGGG

Row | Binder | A (array MTG labeling signal with Z-Gln-Gly-CAD-biotin) [1] | further results
1 | NRTKL (also: flanked by G:S (3:1) linkers on peptide array) [NRTKL (SEQ ID NO: 76)] | 13.3 | –
2 | RSKLA (not fully specified) [RSKLA (SEQ ID NO: 68)] | 13.3 | –
3 | QRSKL (also: flanked by G:S (3:1) linkers on peptide array) [QRSKL (SEQ ID NO: 73)] | 13.3 | –
4 | RAKYK (also: flanked by G:S (3:1) linkers on peptide array) [RAKYK (SEQ ID NO: 70)] | 13.3 | –
5 | B1 | – | stated: almost no MTG turnover (rate of NADH oxidation, GLDH-coupled assay, 100 uM Z-GGGDYALQGGGG as amine acceptor) [2]: filled circles: rate stays at about 0 pmol/s from 0 to 200 uM and reaches only about 0.2 pmol/s at 500 uM; KM (GLDH-coupled MTG activity assay, 100 µM Z-GGGDYALQGGGG as amine acceptor) [3]: 66.8 µM; Vmax (GLDH-coupled MTG activity assay, 100 µM Z-GGGDYALQGGGG as amine acceptor) [3]: 5.1 pmol/s; difference in MTG catalytic efficiency against GGGDEKPDGGGG (SEQ ID NO: 81) [3]: an apparent difference in MTG catalytic efficiency of at least 10-fold was observed; kcat (GLDH-coupled MTG activity assay, 100 µM Z-GGGDYALQGGGG as amine acceptor) [3]: 0.066 s⁻¹; kcat/KM (GLDH-coupled MTG activity assay, 100 µM Z-GGGDYALQGGGG as amine acceptor) [3]: 990 M⁻¹ s⁻¹; KM (GLDH-coupled MTG activity assay) [4]: 970 µM; Vmax (GLDH-coupled MTG activity assay) [4]: 0.46 nmol/s; difference in MTG catalytic efficiency against standard QG-substrate [4]: a difference in MTG catalytic efficiency of at least 3-fold; kcat (GLDH-coupled MTG activity assay) [4]: 6 s⁻¹; kcat/KM (GLDH-coupled MTG activity assay) [4]: 6200 M⁻¹ s⁻¹
6 | LSKLK (also: flanked by G:S (3:1) linkers on peptide array) [LSKLK (SEQ ID NO: 75)] | 13.3 | –
7 | SKLSK (not fully specified) [SKLSK (SEQ ID NO: 71)] | 13.3 | –
8 | RLKSK (also: flanked by G:S (3:1) linkers on peptide array) [RLKSK (SEQ ID NO: 67)] | 13.3 | –
9 | GYKLK (also: flanked by G:S (3:1) linkers on peptide array) [GYKLK (SEQ ID NO: 78)] | 13.3 | –
10 | KTKYK (also: flanked by G:S (3:1) linkers on peptide array) [KTKYK (SEQ ID NO: 74)] | 13.3 | –
11 | PKTKL (also: flanked by G:S (3:1) linkers on peptide array) [PKTKL (SEQ ID NO: 66)] | 13.3 | –
12 | QRTKL (also: flanked by G:S (3:1) linkers on peptide array) [QRTKL (SEQ ID NO: 77)] | 13.3 | –
13 | GRSKL (also: flanked by G:S (3:1) linkers on peptide array) [GRSKL (SEQ ID NO: 69)] | 13.3 | –
14 | KLGAK (also: flanked by G:S (3:1) linkers on peptide array) [KLGAK (SEQ ID NO: 72)] | 13.3 | –

From patent US20170314054A1 (ROCHE SEQUENCING SOLUTIONS, published 2017)
